Test results as given in patent US6764837 (BOARD OF TRUSTEES OF THE UNIVERSITY OF ARKANSAS, dated 2004).

T1: RpoA (RNAP alpha subunit), untagged (Agrobacterium tumefaciens) (UniProt P0A4E3)
T1 sequence: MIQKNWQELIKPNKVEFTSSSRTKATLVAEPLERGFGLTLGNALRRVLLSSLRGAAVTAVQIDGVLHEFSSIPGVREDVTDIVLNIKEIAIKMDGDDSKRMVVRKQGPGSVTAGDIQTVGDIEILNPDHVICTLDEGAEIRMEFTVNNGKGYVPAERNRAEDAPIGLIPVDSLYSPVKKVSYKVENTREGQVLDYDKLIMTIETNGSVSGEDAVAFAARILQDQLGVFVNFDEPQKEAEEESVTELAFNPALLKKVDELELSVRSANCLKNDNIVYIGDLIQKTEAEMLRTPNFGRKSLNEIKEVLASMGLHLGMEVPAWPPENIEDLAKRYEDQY

T2: RpoA delta C-terminal 8 (residues 1-328) deletion of 329-336 (Agrobacterium tumefaciens) (UniProt P0A4E3)
T2 sequence: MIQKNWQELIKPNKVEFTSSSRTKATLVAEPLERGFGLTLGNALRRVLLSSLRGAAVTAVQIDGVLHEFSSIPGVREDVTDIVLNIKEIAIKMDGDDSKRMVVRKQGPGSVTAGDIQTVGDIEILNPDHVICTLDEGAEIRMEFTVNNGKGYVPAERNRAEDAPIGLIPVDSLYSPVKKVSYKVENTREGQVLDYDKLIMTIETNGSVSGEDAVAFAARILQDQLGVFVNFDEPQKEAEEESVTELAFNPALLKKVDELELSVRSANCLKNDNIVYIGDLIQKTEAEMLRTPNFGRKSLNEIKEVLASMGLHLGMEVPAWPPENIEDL

B1: His-tagged RpoA (α subunit of RNA polymerase) of A. tumefaciens (other)
chain: MIQKNWQELIKPNKVEFTSSSRTKATLVAEPLERGFGLTLGNALRRVLLSSLRGAAVTAVQIDGVLHEFSSIPGVREDVTDIVLNIKEIAIKMDGDDSKRMVVRKQGPGSVTAGDIQTVGDIEILNPDHVICTLDEGAEIRMEFTVNNGKGYVPAERNRAEDAPIGLIPVDSLYSPVKKVSYKVENTREGQVLDYDKLIMTIETNGSVSGEDAVAFAARILQDQLGVFVNFDEPQKEAEEESVTELAFNPALLKKVDELELSVRSANCLKNDNIVYIGDLIQKTEAEMLRTPNFGRKSLNEIKEVLASMGLHLGMEVPAWPPENIEDLAKRYEDQY
notes: not shown: N-terminal His tag from a pQE vector (Qiagen)

Legend:
[1] = target: T1, RpoA (RNAP alpha subunit), untagged (Agrobacterium tumefaciens); assay: cell_activity; conditions: pPS1.3 in E. coli MC4100(pSY215) with VirGcon; vector control 3; indirect reporter
[2] = target: T2, RpoA delta C-terminal 8 (residues 1-328) deletion of 329-336 (Agrobacterium tumefaciens); assay: cell_activity; conditions: pAD8 in E. coli MC4100(pSY215) with VirGcon; vector control 3; indirect reporter
[3] = target: T3, E. coli RNA polymerase σ70 subunit (Escherichia coli, UniProt P00579 1-613); assay: in vitro reconstitution of RNAP, SDS-PAGE (FIG. 4A)
T3 construct: also called σ^70

[4] = target: T4, E. coli RNA polymerase β′ subunit (Escherichia coli, UniProt P0A8T7 1-1407); assay: as above
T4 construct: also called E. coli β′

[5] = target: T5, E. coli RNA polymerase β subunit (Escherichia coli, UniProt P0A8V2 1-1342); assay: as above
T5 construct: also called E. coli β
T5 sequence (P0A8V2 whole entry): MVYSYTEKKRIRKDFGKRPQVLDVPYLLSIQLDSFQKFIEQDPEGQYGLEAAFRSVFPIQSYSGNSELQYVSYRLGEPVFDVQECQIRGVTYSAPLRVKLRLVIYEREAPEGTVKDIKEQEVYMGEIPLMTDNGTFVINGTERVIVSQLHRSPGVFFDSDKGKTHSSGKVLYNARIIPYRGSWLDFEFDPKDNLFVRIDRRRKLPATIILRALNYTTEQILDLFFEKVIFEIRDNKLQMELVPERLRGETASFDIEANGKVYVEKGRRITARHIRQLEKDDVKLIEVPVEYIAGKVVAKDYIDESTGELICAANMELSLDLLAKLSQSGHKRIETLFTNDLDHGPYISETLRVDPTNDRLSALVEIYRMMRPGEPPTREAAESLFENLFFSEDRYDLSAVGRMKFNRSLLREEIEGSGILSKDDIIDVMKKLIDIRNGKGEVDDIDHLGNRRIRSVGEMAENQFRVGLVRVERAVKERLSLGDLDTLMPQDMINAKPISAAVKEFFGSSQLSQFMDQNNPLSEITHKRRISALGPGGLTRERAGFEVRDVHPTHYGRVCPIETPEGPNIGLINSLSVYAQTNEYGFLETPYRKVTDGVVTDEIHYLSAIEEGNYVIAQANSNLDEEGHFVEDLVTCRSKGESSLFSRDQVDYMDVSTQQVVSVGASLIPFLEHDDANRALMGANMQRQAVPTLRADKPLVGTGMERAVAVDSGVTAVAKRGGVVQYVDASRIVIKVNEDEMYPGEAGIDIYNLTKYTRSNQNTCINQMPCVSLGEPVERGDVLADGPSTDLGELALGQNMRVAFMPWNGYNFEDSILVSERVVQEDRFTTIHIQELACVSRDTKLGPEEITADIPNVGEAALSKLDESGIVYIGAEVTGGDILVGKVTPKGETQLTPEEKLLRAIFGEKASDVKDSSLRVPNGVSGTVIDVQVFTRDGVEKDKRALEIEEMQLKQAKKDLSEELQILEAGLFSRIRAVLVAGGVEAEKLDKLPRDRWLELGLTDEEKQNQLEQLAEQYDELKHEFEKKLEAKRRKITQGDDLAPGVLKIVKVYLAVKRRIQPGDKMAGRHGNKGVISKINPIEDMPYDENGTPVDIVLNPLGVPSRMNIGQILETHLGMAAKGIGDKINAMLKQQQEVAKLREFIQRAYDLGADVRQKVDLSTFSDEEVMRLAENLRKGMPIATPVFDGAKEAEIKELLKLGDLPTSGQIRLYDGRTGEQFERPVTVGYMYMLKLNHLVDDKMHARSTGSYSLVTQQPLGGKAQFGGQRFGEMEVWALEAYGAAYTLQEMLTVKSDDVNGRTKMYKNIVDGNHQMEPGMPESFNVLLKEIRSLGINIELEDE

T4 sequence (P0A8T7 whole entry): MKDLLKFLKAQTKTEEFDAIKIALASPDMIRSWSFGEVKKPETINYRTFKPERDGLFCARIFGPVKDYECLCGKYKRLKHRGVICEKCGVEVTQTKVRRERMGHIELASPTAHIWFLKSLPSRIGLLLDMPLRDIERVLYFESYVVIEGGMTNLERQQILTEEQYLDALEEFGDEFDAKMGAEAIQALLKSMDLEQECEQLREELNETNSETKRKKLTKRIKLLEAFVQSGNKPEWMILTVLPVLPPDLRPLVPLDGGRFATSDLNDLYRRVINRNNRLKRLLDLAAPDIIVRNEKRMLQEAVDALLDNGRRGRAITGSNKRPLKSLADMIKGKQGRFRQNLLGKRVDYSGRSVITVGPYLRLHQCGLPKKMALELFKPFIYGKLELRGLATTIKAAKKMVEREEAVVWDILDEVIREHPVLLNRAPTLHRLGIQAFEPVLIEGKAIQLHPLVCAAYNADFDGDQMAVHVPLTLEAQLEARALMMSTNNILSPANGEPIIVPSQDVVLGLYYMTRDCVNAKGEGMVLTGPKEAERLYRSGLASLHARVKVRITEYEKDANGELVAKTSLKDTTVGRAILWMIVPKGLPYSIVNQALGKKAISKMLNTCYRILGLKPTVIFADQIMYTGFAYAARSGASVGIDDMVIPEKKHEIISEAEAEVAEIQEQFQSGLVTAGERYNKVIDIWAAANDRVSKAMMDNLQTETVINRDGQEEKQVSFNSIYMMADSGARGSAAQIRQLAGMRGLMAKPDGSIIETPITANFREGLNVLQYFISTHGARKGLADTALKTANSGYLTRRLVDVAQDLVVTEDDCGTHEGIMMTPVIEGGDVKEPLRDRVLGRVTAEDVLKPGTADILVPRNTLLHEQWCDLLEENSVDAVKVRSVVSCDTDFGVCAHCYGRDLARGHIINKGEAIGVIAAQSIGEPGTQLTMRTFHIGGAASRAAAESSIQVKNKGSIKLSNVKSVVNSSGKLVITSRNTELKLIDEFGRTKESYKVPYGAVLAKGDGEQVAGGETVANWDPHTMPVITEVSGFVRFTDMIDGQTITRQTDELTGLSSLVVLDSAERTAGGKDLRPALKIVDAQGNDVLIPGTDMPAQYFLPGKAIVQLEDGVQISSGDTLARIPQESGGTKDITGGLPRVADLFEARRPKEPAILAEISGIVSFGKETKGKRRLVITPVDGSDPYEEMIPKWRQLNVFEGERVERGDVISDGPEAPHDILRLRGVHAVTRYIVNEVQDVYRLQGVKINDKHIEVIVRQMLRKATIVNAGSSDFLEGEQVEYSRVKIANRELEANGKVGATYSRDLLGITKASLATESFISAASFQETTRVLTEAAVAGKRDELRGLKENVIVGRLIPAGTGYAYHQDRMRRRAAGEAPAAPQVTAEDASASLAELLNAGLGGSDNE
T3 sequence (P00579 whole entry): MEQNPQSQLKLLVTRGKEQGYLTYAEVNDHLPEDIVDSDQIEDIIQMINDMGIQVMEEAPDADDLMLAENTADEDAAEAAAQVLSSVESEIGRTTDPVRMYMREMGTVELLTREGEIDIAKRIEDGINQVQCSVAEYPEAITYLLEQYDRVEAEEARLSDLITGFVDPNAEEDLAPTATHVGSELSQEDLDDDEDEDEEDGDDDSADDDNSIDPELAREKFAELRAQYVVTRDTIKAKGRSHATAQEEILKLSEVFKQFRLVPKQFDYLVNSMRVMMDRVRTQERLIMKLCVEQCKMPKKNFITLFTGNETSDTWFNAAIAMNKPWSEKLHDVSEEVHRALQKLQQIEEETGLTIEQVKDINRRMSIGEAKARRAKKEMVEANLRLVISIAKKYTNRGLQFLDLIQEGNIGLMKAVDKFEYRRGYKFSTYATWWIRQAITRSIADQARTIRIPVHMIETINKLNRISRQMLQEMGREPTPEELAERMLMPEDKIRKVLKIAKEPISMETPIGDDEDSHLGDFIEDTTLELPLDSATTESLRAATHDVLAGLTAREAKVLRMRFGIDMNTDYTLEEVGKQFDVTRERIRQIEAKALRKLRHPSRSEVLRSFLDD

| Molecule | activity [1] [Miller units] | activity [2] [Miller units] | binding result [3] | binding result [4] | binding result [5] |
| --- | --- | --- | --- | --- | --- |
| virBp::lacZ reporter promoter | 140 | 4 |  |  |  |
| B1 |  |  | binds | binds | binds |
